Reference: PMC10465527

Biological target: B55α/δ regulatory subunit of PP2A (human (endogenous in HAP1)) (UniProt P63151)
Experiment: co-IP; B56α (1D3-E12) or B55α/δ (2G9) antibody crosslinked to protein G-Sepharose, 1 h with lysates of HAP1 wild-type and lcmt1-/- cells; lysis buffer 10% glycerol, 135 mM NaCl, 20 mM Tris pH 8.0, 1% Nonidet P-40; immunoblot, co-precipitated A and C normalised to the B subunit

UniProt P63151, sequence (P63151 whole entry, stated change not applied): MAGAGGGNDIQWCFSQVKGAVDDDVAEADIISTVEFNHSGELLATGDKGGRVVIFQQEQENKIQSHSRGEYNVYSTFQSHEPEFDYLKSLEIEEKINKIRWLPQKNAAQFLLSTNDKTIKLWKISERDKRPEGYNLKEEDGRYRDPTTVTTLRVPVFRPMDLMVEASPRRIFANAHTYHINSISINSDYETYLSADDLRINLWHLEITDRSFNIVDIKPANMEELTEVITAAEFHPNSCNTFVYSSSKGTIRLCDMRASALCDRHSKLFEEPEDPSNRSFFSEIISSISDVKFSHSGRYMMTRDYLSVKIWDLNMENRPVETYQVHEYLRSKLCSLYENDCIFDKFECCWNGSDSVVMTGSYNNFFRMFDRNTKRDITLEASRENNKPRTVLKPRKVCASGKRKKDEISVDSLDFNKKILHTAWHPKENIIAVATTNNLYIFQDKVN

- trimeric holoenzyme level relative to wild-type cells (of the levels in wild-type cells): 0.33
Substance: non-methylated PP2A-C (catalytic C subunit of PP2A) (from UniProt P67775 1-309) (natural protein)
